Tests used:
[1] = system: B. cinerea; test: Open-air field trial on snap bean (Example 4.3, AUDPC of % disease severity); type: in vivo, Botrytis cinerea; details: Switch 525 g ai/ha, GS349 20 and 40, GS2280 10 and 40, GS2303 10, 20 and 40, GS2297 20 g ai/ha, FIG. 9
Experimental: RNAi compositions, each containing a dsRNA comprising a trigger sequence (GS349, GS2280, GS2303, or GS2297) described herein were evaluated for ability to control botrytis on snap bean in open-air filed trials. All test samples were formulated with RO water, propylene glycol, a linear alcohol ethoxylate, a lignosulfanate, sodium citrate dihydate, a polyacrylic acid polymer, two biocide compositions, anhydrous citric acid, and an antifoam, all of which are readily commercially available. Formulation samples were tank mixed with a standard adjuvant, the non-ionic surfactant, Activator 90 0.125%v/v. Compositions were tested at concentrations of 10, g ai/ha, 20 g ai/ha, and 40 g ai/ha. Positive controls were a chemical standard, Switch 525 g ai/ha and a biological standard, Double Nickel LC 9.4 I/ha, both of which were also tank mixed with Activator 90 0.125% v/v. As above, an untreated check was used as a negative control.
Compositions were applied to snap bean plants using a small plot sprayer delivering 50 gallons of water per acre. A total of three applications were used for each sample and positive control. Disease state was evaluated beginning 8 days after the first application and ending 37 days after the third and final application. Percent Disease Severity was assessed and AUDPC was calculated in the same manner as noted in Example 4.1.

[2] = system: Botrytis cinerea isolate (B05.10); test: Detached leaf assay (tomato leaflets, lesion size); type: in vivo; details: five days post inoculation, vs untreated inoculated control
How it was run: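 Tomato (Brandywine) detached lateral leaflets were sprayed with treatment in 0.03% Silwet L-77 24 h before inoculation. Two 10 μL drops of 1×10^5 conidia/mL in 7% grape juice were applied per leaflet, which was then incubated at 23 °C, ~75% RH, 12/12 light. Lesion diameter was measured at 5 DPI against the untreated inoculated control, ten replicates.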

[3] = system: Botrytis cinerea conidia; test: In vitro liquid-based assay (fungal biomass, 96-well plates, Cytation 5); type: cell-based; details: co-incubated with conidia for three days, vs untreated control
How it was run: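 Conidia (5000/mL stock) were co-incubated with dsRNA or control treatments in pH 6.0 minimal medium. Incubation ran 72 h at 23 °C, shaking at 120 rpm under continuous light. Fungal biomass was measured by brightfield imaging (8 slices per well, 2.5× lens) and expressed as average reduction versus control.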

| Molecule | Disease state compared to treatment with the chemical standard (AUDPC) [1] | Average % Reduction in Lesion Size ([2]; 30 ppm) [%] | Average % Reduction in Lesion Size ([2]; 50 ppm) [%] | Average % Reduction in Biomass ([3]; 25 ppm dsRNA) [%] | Average % Reduction in Biomass ([3]; 150 ppm dsRNA) [%] |
| --- | --- | --- | --- | --- | --- |
| GS349: dsRNA trigger targeting B. cinerea CDC42 (XM_001545642.2); trigger SEQ ID NO 14, RNA 26, reverse complement 38 (nucleic acid, listed as Botrytis cinerea) sense: GUUGUCUUGUCUCGCUCAAGCUUGUCCUGUCUGGUCACUUUUCUUUCUGCCUGAUAAUCCAGACCUCGAAAAUAACCAAAAGAUUGGAAAUCGUUUGCUCAUCUUGCAUGCAUUAUUACUUUCCUGGAUCAAUCUCAUUCAACUCGUUCUCGUGCAUUUCAUUCAACCUCAACCCCUACUUUCAGUCAAUUCAAUUUAAUUCAAUCAUUCAAAUCUUUCAUUUCGCACACUUCACAUUCAACCAUCCUCUCUCAAUCAAAUAUCACCACCUCUCUUAUCGAACGUCAUUUUGCAUACAAUCAAUUCCUACAGACCGAGCGCAACUCGAUACAACCAUCGAAUAACUUCUCACACUUGCUUGUUGAAUUGAUUACUGAAGAAAGUGGAUUUCAAAGACCGAUUUUCCCCCUAGAUAUUCAAGAACGGCUUAUUCUUGUCUCGAGACAAAAC antisense: GUUUUGUCUCGAGACAAGAAUAAGCCGUUCUUGAAUAUCUAGGGGGAAAAUCGGUCUUUGAAAUCCACUUUCUUCAGUAAUCAAUUCAACAAGCAAGUGUGAGAAGUUAUUCGAUGGUUGUAUCGAGUUGCGCUCGGUCUGUAGGAAUUGAUUGUAUGCAAAAUGACGUUCGAUAAGAGAGGUGGUGAUAUUUGAUUGAGAGAGGAUGGUUGAAUGUGAAGUGUGCGAAAUGAAAGAUUUGAAUGAUUGAAUUAAAUUGAAUUGACUGAAAGUAGGGGUUGAGGUUGAAUGAAAUGCACGAGAACGAGUUGAAUGAGAUUGAUCCAGGAAAGUAAUAAUGCAUGCAAGAUGAGCAAACGAUUUCCAAUCUUUUGGUUAUUUUCGAGGUCUGGAUUAUCAGGCAGAAAGAAAAGUGACCAGACAGGACAAGCUUGAGCGAGACAAGACAAC | no significant difference | 32.99 | 31.80 | 8 | 25 |
| GS730: dsRNA trigger targeting B. cinerea Bcsec15 (XM_024692064.1); trigger SEQ ID NO 19, RNA 31, reverse complement 43 (nucleic acid, listed as Botrytis cinerea) sense: UCAACGCAGUCUCCAAAGCUUUGGAUGAAUUCGAUAACCCGGAUGUUAUUCUGCAAACCAAGAAUGUGAUAGCAUUGUUCAUCCAAACAAUGGAGGGUUGGGGAUAUUCAGUUGCCAUAUUAGAUGCUUAUGUGCUUAAGCUUUUCUAUAGAUAUGCUGAUUUGUUAAAACGGAAAUUCAGCACAGAUUUUCAACAGAUUGUGUCUACCGAUGAAUACAUGCCUAUGCCUGUCAAUAGCGAAGAAGACUUUGAUAAAAUCAUUCAAGUCAGUUGGUAUGUUCCGGACAGACCGAAAGAAGAAUACACAUUCCCCGGUGUAUUACCAUUCUCCCAGAUGUACCCAAUGUGCUGUAUAGAUAUCAGAAAUUUCCUGAAUCGAUUCUACUUCAUAAUGGAUGAUCAUUUUCAACAGCCAAACAUUAUUGAUGAGACACUUAAGAAGUCGAUAGAUGAGCUUCUGUCUGAGGAUAUUUGUGA antisense: UCACAAAUAUCCUCAGACAGAAGCUCAUCUAUCGACUUCUUAAGUGUCUCAUCAAUAAUGUUUGGCUGUUGAAAAUGAUCAUCCAUUAUGAAGUAGAAUCGAUUCAGGAAAUUUCUGAUAUCUAUACAGCACAUUGGGUACAUCUGGGAGAAUGGUAAUACACCGGGGAAUGUGUAUUCUUCUUUCGGUCUGUCCGGAACAUACCAACUGACUUGAAUGAUUUUAUCAAAGUCUUCUUCGCUAUUGACAGGCAUAGGCAUGUAUUCAUCGGUAGACACAAUCUGUUGAAAAUCUGUGCUGAAUUUCCGUUUUAACAAAUCAGCAUAUCUAUAGAAAAGCUUAAGCACAUAAGCAUCUAAUAUGGCAACUGAAUAUCCCCAACCCUCCAUUGUUUGGAUGAACAAUGCUAUCACAUUCUUGGUUUGCAGAAUAACAUCCGGGUUAUCGAAUUCAUCCAAAGCUUUGGAGACUGCGUUGA |  | 16.38 | 25.11 | 21 | 45 |
| GS2280: dsRNA trigger targeting B. cinerea Bcmcm4 (XM_024696090.1); trigger SEQ ID NO 21, RNA 33, reverse complement 45 (nucleic acid, listed as Botrytis cinerea) sense: AAUGUCCUCGUCCGGUUUGUAAAUCUCCAAACUCCAUGCAGAUUGUACACAACAGGUCUGGAUUCAUGGAUAAGCAAGUUAUCAAGCUUCAAGAAACUCCAGAUUCCGUUCCUGCUGGUCAAACACCACAUUCCGUCUCGAUGUGUGCAUAUGAUGAGUUGGUGGAUCUGUGCAAAGCUGGUGACAGAGUUGAGAUUACUGGUAUCUUCAAAGCUAGUCCAGUUCGUGUCAAUCCUCGCCAAAGAACUCUCAAAAGCAUUUAUAAAACGUACAUCGACGUUUUACACAUUCAAAAGGUUGACAAGAAAAGAAUGGGAAUUGAUGCUUCGACCGUUGAGCAAGAAAUAUCCGAUCAGUUGACAGGCAACAUUGAAGAAACUAGAAAGGUUUCUGAAGAGGAGGAAGAAAAAAUCAGAGAAACCGCUGCAAGACCCGAUAUCUACGAACUUCUAUCUCGAUCCCUCGCACCUAGUAUUUUUGAGAUGGACGAUGUUAAGAAGGGUAUCUUGCUUCAAUUAUUUGGUGGAACUAACAAGUCUUUCGAAAAAGGAGGAAGUCCAAAAUACAGAGGAGAUAUCAAUAUUCUAUUGU antisense: ACAAUAGAAUAUUGAUAUCUCCUCUGUAUUUUGGACUUCCUCCUUUUUCGAAAGACUUGUUAGUUCCACCAAAUAAUUGAAGCAAGAUACCCUUCUUAACAUCGUCCAUCUCAAAAAUACUAGGUGCGAGGGAUCGAGAUAGAAGUUCGUAGAUAUCGGGUCUUGCAGCGGUUUCUCUGAUUUUUUCUUCCUCCUCUUCAGAAACCUUUCUAGUUUCUUCAAUGUUGCCUGUCAACUGAUCGGAUAUUUCUUGCUCAACGGUCGAAGCAUCAAUUCCCAUUCUUUUCUUGUCAACCUUUUGAAUGUGUAAAACGUCGAUGUACGUUUUAUAAAUGCUUUUGAGAGUUCUUUGGCGAGGAUUGACACGAACUGGACUAGCUUUGAAGAUACCAGUAAUCUCAACUCUGUCACCAGCUUUGCACAGAUCCACCAACUCAUCAUAUGCACACAUCGAGACGGAAUGUGGUGUUUGACCAGCAGGAACGGAAUCUGGAGUUUCUUGAAGCUUGAUAACUUGCUUAUCCAUGAAUCCAGACCUGUUGUGUACAAUCUGCAUGGAGUUUGGAGAUUUACAAACCGGACGAGGACAUU | no significant difference | 32.13 | 24.08 | 16 | 33 |
